# Numbering of substitutions follows the chain as printed. Like-named read-outs stand apart in the source and are kept apart here.
# T1: Cynomolgus monkey IL-18 (Rhesus monkey (identical to cynomolgus …, UniProt Q9BGI5 37-193))
# T1 construct: Bought protein; also called Cyno IL-18; Cynomolgus IL-18
# T1 sequence: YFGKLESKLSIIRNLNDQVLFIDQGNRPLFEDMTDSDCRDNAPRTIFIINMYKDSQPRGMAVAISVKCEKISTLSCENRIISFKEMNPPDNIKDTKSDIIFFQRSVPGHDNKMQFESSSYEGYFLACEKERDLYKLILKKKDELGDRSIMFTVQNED
# T2: Human IL-18 (human, UniProt Q14116 37-193)
# T2 construct: Recombinant, made in-house; In the BLI assay the loaded cytokine was captured on anti-Penta His sensors, so a His tag is implied but not described; also called recombinant human IL-18; interleukin 18
# T2 sequence: T1 sequence with I11V, N50S, A63T, R79K, Y134F, K141E
# T3: Human IL-23 (human, UniProt Q9NPF7 20-189; P29460 23-328)
# T3 construct: Disulphide-linked p19/p40 heterodimer, recombinant, made in-house; also called recombinant human IL-23; rhIL-23
# T3 sequence 1: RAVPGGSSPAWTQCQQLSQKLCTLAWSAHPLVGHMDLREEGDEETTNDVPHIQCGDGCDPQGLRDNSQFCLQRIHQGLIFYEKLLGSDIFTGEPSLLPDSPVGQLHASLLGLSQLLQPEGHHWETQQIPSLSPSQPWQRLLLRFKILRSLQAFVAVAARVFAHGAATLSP
# T3 sequence 2: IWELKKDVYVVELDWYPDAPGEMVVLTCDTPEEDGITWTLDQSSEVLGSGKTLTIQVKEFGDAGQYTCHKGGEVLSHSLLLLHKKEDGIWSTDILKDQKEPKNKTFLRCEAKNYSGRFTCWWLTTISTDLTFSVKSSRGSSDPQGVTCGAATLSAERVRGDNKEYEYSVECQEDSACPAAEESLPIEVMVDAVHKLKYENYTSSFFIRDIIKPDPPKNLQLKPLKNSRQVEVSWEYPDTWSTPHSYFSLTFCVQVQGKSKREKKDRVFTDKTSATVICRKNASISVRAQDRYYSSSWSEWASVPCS
# B1: Heterodimeric bsAb 4 (bispecific antibody, human IgG1, kappa)
# heavy 1: QVQLVQSGAEVKKPGSSVKVSCKASGYTFTDQTIHWMRQAPGQGLEWIGYIYPRDDSPKYNENFKGKVTITADKSTSTAYMELSSLRSEDTAVYYCAIPDRSGYAWFIYWGQGTLVTVSSASTKGPSVFPLAPSSKSTSGGTAALGCRVKDYFPEPVTVSWNSGALTSGVHTFPAVLQSSGLYSLSSVVTVPSSSLGTQTYICNVNHKPSNTKVDKKVEPKSCDKTHTCPPCPAPELAGAPSVFLFPPKPKDTLYITREPEVTCVVVDVSHEDPEVKFNWYVDGVEVHNAKTKPREEQYNSTYRVVSVLTVLHQDWLNGKEYKCKVSNKALPAPIEKTISKAKGQPREPQVYVYPPSRDELTKNQVSLTCLVKGFYPSDIAVEWESNGQPENNYKTTPPVLDSDGSFALVSKLTVDKSRWQQGNVFSCSVMHEALHNHYTQKSLSLSPGK
# light 1: DIQMTQSPSSLSASVGDRVTITCKASRDVAIAVAWYQQKPGKVPKLLIYWASTRHTGVPSRFSGSGSRTDFTLTISSLQPEDVADYFCHQYSSYPFTFGSGTKLEIKRTVAAPSVFIFPPSDEELKSGTASVECLLNNFYPREAKVQWKVDNALQSGNSQESVTEQDSKDSTYSLSSTLTLSKADYEKHKVYACEVTHQGLSSPVTKSFNRGEC
# heavy 2: QVQLVQSGAEVKKPGASVKVSCKVSGEISTGYYFHWVRQAPGKGLEWMGRIDPEDDSTKYAERFKDRVTMTEDTSTDTAYMELSSLRSEDTAVYYCTTWRIYRDSSGRPFYVMDAWGQGTLVTVSSASTKGPSVFPLAPSSKSTSGGTAALGCEVTDYFPEPVTVSWNSGALTSGVHTFPAVLESSGLYSLSSVVTVPSSSLGTQTYICNVNHKPSNTKVDKKVEPKSCDKTHTCPPCPAPELAGAPSVFLFPPKPKDTLYITREPEVTCVVVDVSHEDPEVKFNWYVDGVEVHNAKTKPREEQYNSTYRVVSVLTVLHQDWLNGKEYKCKVSNKALPAPIEKTISKAKGQPREPQVYVLPPSRDELTKNQVSLLCLVKGFYPSDIAVEWESNGQPENNYLTWPPVLDSDGSFFLYSKLTVDKSRWQQGNVFSCSVMHEALHNHYTQKSLSLSPGK
# light 2: DIQMTQSPSSVSASVGDRVTITCLASEDIYTYLTWYQQKPGKAPKLLIYGANKLQDGVPSRFSGSGSGTDYTLTISSLQPEDFATYYCLQGSKFPLTFGQGTKLEIKRTVAAPSVFIFPPSDERLKSGTASVVCLLNNFYPREAKVQWKVDNALQSGNSQESVTEQDSKDSTYSLSSRLTLSKADYEKHKVYACEVTHQGLSSPVTKSFNRGEC
# notes: Het-mAb format: anti-IL-23 mAb (risankizumab) on ZA and anti-IL-18 mAb on ZB, with Fc heterodimerisation, silencing and half-life extending mutations; Stably expressed in CHO cells; also called anti-IL-23xIL-18 HETmAb
# B2: IL-23 control 1 (antibody, V domains shown)
# VH: QVQLVQSGAEVKKPGSSVKVSCKASGYTFTDQTIHWMRQAPGQGLEWIGYIYPRDDSPKYNENFKGKVTITADKSTSTAYMELSSLRSEDTAVYYCAIPDRSGYAWFIYWGQGTLVTVSS
# VL: DIQMTQSPSSLSASVGDRVTITCKASRDVAIAVAWYQQKPGKVPKLLIYWASTRHTGVPSRFSGSGSRTDFTLTISSLQPEDVADYFCHQYSSYPFTFGSGTKLEIK
# notes: Anti-IL-23 (risankizumab) mAb plus Het-mAb Fc mutations of Heterodimeric bsAbs 1-4, silencing (LAGA) and half-life extending (YTE) mutations; also called anti-IL-23 control 1; risankizumab variable domains
# B3: IL-18 control 5 (antibody, V domains shown)
# VH: QVQLVQSGAEVKKPGASVKVSCKVSGEISTGYYFHWVRQAPGKGLEWMGRIDPEDDSTKYAERFKDRVTMTEDTSTDTAYMELSSLRSEDTAVYYCTTWRIYRDSSGRPFYVMDAWGQGTLVTVSS
# VL: DIQMTQSPSSVSASVGDRVTITCLASEDIYTYLTWYQQKPGKAPKLLIYGANKLQDGVPSRFSGSGSGTDYTLTISSLQPEDFATYYCLQGSKFPLTFGQGTKLEIK
# notes: Anti-IL-18 mAb plus Het-mAb Fc mutations of Heterodimeric bsAbs 1-4 and silencing (LAGA) mutations
# B4: IL-18 control 1 (antibody, V domains shown)
# VH: B3 VH
# VL: B3 VL
# notes: Anti-IL-18 mAb plus Het-mAb Fc mutations of Heterodimeric bsAbs 1-4, silencing (LAGA) and half-life extending (YTE) mutations; also called anti-IL-18 control 1
# Key:
# [1] = biological target: T4, Cynomolgus monkey IL-23 (cynomolgus monkey); assay: SPR (Biacore 8K/T200), antibody captured on Protein A/G, cytokine as analyte, 25 C, geometric mean of n=3-5
# T4 construct: also called Cyno IL-23
# Method: (§1) A heterodimeric bsAb, alongside anti-IL-18 and anti-IL-23 common light chain control bispecific antibodies, were assessed for binding to human and cyno IL-18 and IL-23, using the Biacore 8K and T200 (Cytiva) surface plasmon resonance (SPR) instruments. All reagents were generated recombinantly in-house with the exception of Rhesus monkey IL-18 which was purchased from R&D systems (Cat #2548-RM-025/CF). Rhesus and cynomolgus monkey amino acid sequences are identical. Therefore, the protein will be referred to as cynomolgus monkey IL-18.
# (§2) Heterodimeric bsAb, anti-IL-18 and anti-IL-23 common light chain bispecific control molecules were assessed for binding to recombinant human and cynomolgus monkey IL-18 and IL-23 using the Biacore 8K and T200 (Cytiva) SPR instruments. The antibodies were captured onto Protein A/G, which was immobilised onto flow cell 2 of 8 channels (Biacore 8K) or flow cells 2, 3 and 4 (Biacore T200) of a CM5 series S sensor chip by primary amine coupling. The IL-18 or IL-23 analytes were passed over the captured antibodies at varying concentrations between 0.04-25 nM. The association phase was for 240 seconds at 30 μl/min, followed by a dissociation step of up to 1200 seconds. A 0 nM (i.e., buffer alone) injection was used to double reference the binding curves. Regeneration of the chip surface between cycles was carried out using 50 mM NaOH. The assay was run at 25° C. in HBS-EP⁺ buffer. Biacore 8K control software version 3.0 was used to run the experiment. Data was analysed using Biacore 8K Insight evaluation software version 3.0. Biacore T200 control software version 1.0 was used to run the experiment. Data was analysed using Biacore T200 evaluation software version 2.0. Affinities and kinetics were determined using the 1:1 kinetic fit inherent to the software where possible. All affinity values generated using both instruments were combined to determine geometric mean values.
# [2] = biological target: T1, Cynomolgus monkey IL-18; assay: as above
# Method: as §1, §2
# [3] = biological target: T2, Human IL-18; assay: as above
# Method: as §1, §2
# [4] = biological target: T3, Human IL-23; assay: as above
# Method: as §1, §2
# [5] = biological target: T2, Human IL-18; assay: cell-based or functional assay
# [6] = biological target: T3, Human IL-23; assay: cell-based or functional assay
# [7] = biological target: T3, Human IL-23; assay: cell-based or functional assay; remark: listed apart in the source
# [8] = biological target: T2, Human IL-18; assay: cell-based or functional assay; remark: listed apart in the source
# [9] = biological target: T1, Cynomolgus monkey IL-18; assay: cell-based or functional assay
# [10] = biological target: T3, Human IL-23; assay: cell-based or functional assay; remark: listed apart in the source
# [11] = biological target: T1, Cynomolgus monkey IL-18; assay: SPR (Biacore), antibody captured on Protein A/G, cytokine as analyte, 25 C
# Method: as §1, §2
# [12] = biological target: T2, Human IL-18; assay: as above
# Method: as §1, §2
# [13] = biological target: T2, Human IL-18; assay: SPR (Biacore), antibody captured on Protein A/G, cytokine as analyte, 25 C, 1:1 fit, n=1
# Method: as §1, §2
# [14] = biological target: T3, Human IL-23; assay: SPR (Biacore), antibody captured on Protein A/G, cytokine as analyte, 25 C
# Method: as §1, §2
# [15] = biological target: T2, Human IL-18; assay: cell-based or functional assay; remark: listed apart in the source
binder,measurement,setting,value
B1,Kd,[1],0.162 nM
same,Kd,[2],0.068 nM
same,Kd,[3],0.035 nM
same,Kd,[4],0.297 nM
same,"Fold change (from IL-18 control 1) of IC50, LPS + IL12-induced IFN-γ in human whole blood",[5],1.9 fold
same,"IC50 nM, inhibition of LPS + IL12-induced IFN-γ in human whole blood",[5],10.5 nM
same,"pIC50, inhibition of LPS + IL12-induced IFN-γ in human whole blood",[5],8
same,"IC50 pM (Geomean), neutralisation of human IL-23-induced pSTAT3 in DB cells (MSD)",[6],58.9 pM
same,"pIC50 (Geomean), neutralisation of human IL-23-induced pSTAT3 in DB cells (MSD)",[6],10.2
same,"Fold change (from anti-IL-23, IL-23 control 1) of IC50, IL-23-induced mouse IL-17A in mouse splenocytes",[7],2.67 fold
same,"IC50 pM, inhibition of human IL-23-induced mouse IL-17A secretion in mouse splenocytes",[7],111 pM
same,"pIC50 (M), inhibition of human IL-23-induced mouse IL-17A secretion in mouse splenocytes",[7],10
same,"IC50 (pM, Mean), neutralisation of human IL-18-induced IFNγ secretion by KG-1 cells",[8],115 pM
same,"pIC50 (GeoMean), neutralisation of human IL-18-induced IFNγ secretion by KG-1 cells",[8],9.94
same,"IC50 (pM, Mean), neutralisation of cynomolgus IL-18-induced IFNγ secretion by KG-1 cells",[9],97.7 pM
same,"pIC50 (GeoMean), neutralisation of cynomolgus IL-18-induced IFNγ secretion by KG-1 cells",[9],10
same,"Fold change (from anti-IL-23, IL-23 control 1) of IC50, IL-23-induced pSTAT3 in T cells of human whole blood",[10],2.42 fold
same,"IC50, inhibition of IL-23-induced pSTAT3 in T cells of human whole blood",[10],395 pM
same,"pIC50, inhibition of IL-23-induced pSTAT3 in T cells of human whole blood",[10],9.4
B2,Kd,[1],0.204 nM
same,Kd,[4],0.348 nM
same,binding result,[11],no binding (tested: 0.04-25 nM analyte)
same,binding result,[12],no binding (tested: 0.04-25 nM analyte)
same,"IC50 pM (Geomean), neutralisation of human IL-23-induced pSTAT3 in DB cells (MSD)",[6],16.6 pM
same,"pIC50 (Geomean), neutralisation of human IL-23-induced pSTAT3 in DB cells (MSD)",[6],10.8
same,"IC50 pM, inhibition of human IL-23-induced mouse IL-17A secretion in mouse splenocytes",[7],41.7 pM
same,"pIC50 (M), inhibition of human IL-23-induced mouse IL-17A secretion in mouse splenocytes",[7],10.4
same,"pIC50 (GeoMean), neutralisation of human IL-18-induced IFNγ secretion by KG-1 cells",[8],< 8.48
same,"pIC50 (GeoMean), neutralisation of cynomolgus IL-18-induced IFNγ secretion by KG-1 cells",[9],< 8.48
same,"IC50, inhibition of IL-23-induced pSTAT3 in T cells of human whole blood",[10],163 pM
same,"pIC50, inhibition of IL-23-induced pSTAT3 in T cells of human whole blood",[10],9.8
B3,Kd,[13],< 0.01 nM
same,binding result,[14],no binding (tested: 0.04-25 nM analyte)
same,"IC50 (pM, Mean), neutralisation of human IL-18-induced IFNγ secretion by KG-1 cells",[15],52.5 pM
same,"pIC50 (GeoMean), neutralisation of human IL-18-induced IFNγ secretion by KG-1 cells",[15],10.3
B4,Kd,[2],0.064 nM
same,Kd,[3],0.067 nM
same,"IC50 nM, inhibition of LPS + IL12-induced IFN-γ in human whole blood",[5],5.5 nM
same,"pIC50, inhibition of LPS + IL12-induced IFN-γ in human whole blood",[5],8.3
same,binding result,[14],no binding (tested: 0.04-25 nM analyte)
same,"IC50 (pM, Mean), neutralisation of human IL-18-induced IFNγ secretion by KG-1 cells",[8],52.5 pM
same,"pIC50 (GeoMean), neutralisation of human IL-18-induced IFNγ secretion by KG-1 cells",[8],10.3
same,"IC50 (pM, Mean), neutralisation of cynomolgus IL-18-induced IFNγ secretion by KG-1 cells",[9],53.7 pM
same,"pIC50 (GeoMean), neutralisation of cynomolgus IL-18-induced IFNγ secretion by KG-1 cells",[9],10.3

# From patent US20260226152A1 (GlaxoSmithKline, published 2026)
